Data from patent publication US20250215403A1, “Compositions and Methods for Cardiac Tissue Regeneration” (Temple University - Of The Commonwealth System Of Higher …, priority 2022, published 2025).

Tests used:
cardiomyocytes (CM) = assay: DNA damage response immunostaining (8-OHG, pATM) in CMs post-MI; format: in vivo, mouse; settings: two days post-MI; compared to Luc
Experimental: Mice hearts were harvested, weighed, and fixed in 4% PFA/PBS overnight on shaker and then washed with PBS for 1 hour and incubated in 30% sucrose/PBS at 4° C. for 12-18 hours. Hearts were then fixed in OCT and frozen at −80° C. (Magadum A., et al., Circulation. 2020, 141 (15): 1249-1265). Transverse heart sections (6-8 μm) were made using a cryostat. Frozen sections were rehydrated in PBS for 5-10 min followed by permeabilization with PBS with 0.1% Triton™ X100 (PBST) for 7-8 min. Heart sections were then treated with 3% H2O2 for 5 min and washed (3×5 min) with PBST. The samples were then blocked with PBS+10% Donkey normal serum+0.1% Triton™ X100 (PBSST) for 1 hour at room temperature. Primary antibodies (see complete list of primary antibodies used for this Example in Table 2 below) diluted in PBST were added and incubated overnight at 4° C. […] For immunostaining with wheat germ agglutinin (WGA) for CM size quantification, images were captured at 40× magnification, and ImageJ was used to determine the area of each cell. Quantitative analyses involved counting of multiple fields from 5-8 mouse hearts per group, and 3-4 sections/heart (˜50 cells per field assessed, for a total ˜250 cells per sample). […] BrdU positive CMs were counted in multiple fields from three independent samples per group and 3 sections/heart. The total number of CMs counted was ˜1-1.5×10^3 CMs per section. […]

[1] = Mouse MI model: heart histology 28 days post-MI (Masson trichrome scar size, HW/BW, WGA CM size, CD31 capillaries); format: in vivo
Experimental: All surgical and experimental procedures with mice were performed in accordance with protocols approved by Institutional Animal Care and Use Committees at Temple University Animal Care and Use Committee (IACUC). C57BL6 or CM-specific MADM mice (8-12-weeks-old) were anesthetized with isoflurane. MI was induced by permanent ligation of the LAD, as previously described (Garikipati, V. N. S., et al., 2019, Nature Communications, 10:4317). Briefly, the left thoracic region was shaved and sterilized. After intubation, the heart was exposed through a left thoracotomy. A suture was placed to ligate the LAD. The thoracotomy and skin were sutured closed in layers. Excess air was removed from the thoracic cavity, and the mouse was removed from ventilation when normal breathing was established. In order to determine the effect of modRNA on cardiovascular outcome after MI, modRNAs (100 μg/heart) were injected into the infarct zone immediately after LAD ligation (Magadum A., et al., Circulation. 2020, 141 (15): 1249-1265). For examination of heart histology, hearts were collected at the end of each study, quickly washed in PBS, weighed, and fixed in 4% PFA for cryo-sectioning and immunostainings. In all experiments, the surgeon was blinded to the treatment group. For assessment of heart histology, hearts were collected at the end of each study. The hearts were excised, briefly washed in PBS, perfused with perfusion buffer, weighed and fixed in 4% PFA at 4° C. overnight. The heart blocks were transverse sectioned at 6-8 μm using cryostat. The heart sections were further processed for histological evaluation using immunostaining (see below) or histological scar staining using Masson's trichrome staining kit (Sigma) according to standard procedures. Measuring the ratio of heart weight to body weight was done using a scale. This ratio was calculated as the heart tissue weight relative to the mouse total body weight in grams (g).
Mice hearts were harvested, weighed, and fixed in 4% PFA/PBS overnight on shaker and then washed with PBS for 1 hour and incubated in 30% sucrose/PBS at 4° C. for 12-18 hours. Hearts were then fixed in OCT and frozen at −80° C. (Magadum A., et al., Circulation. 2020, 141 (15): 1249-1265). Transverse heart sections (6-8 μm) were made using a cryostat. […] For immunostaining with wheat germ agglutinin (WGA) for CM size quantification, images were captured at 40× magnification, and ImageJ was used to determine the area of each cell. Quantitative analyses involved counting of multiple fields from 5-8 mouse hearts per group, and 3-4 sections/heart (˜50 cells per field assessed, for a total ˜250 cells per sample). […] BrdU positive CMs were counted in multiple fields from three independent samples per group and 3 sections/heart. […]

PSAT1 = PSAT1 protein expression in NRVM after modRNA transfection; format: cell-based, rat; settings: in vitro modRNA transfection

B1: PSAT1 modRNA: modified mRNA with N1-methylpseudouridine, transcribed in vitro, encoding phosphoserine aminotransferase 1 (ORF SEQ ID NO: 1, RNA SEQ ID NO: 2) (nucleic acid)
chain: AUGGAAGCCACCAAGCAAGUGGUUAACUUUGGGCCCGGGCCUGCCAAGCUGCCACACUCGGUAUUGUUGGAGAUCCAGAAGCAGCUACUAGACUACAGAGGACUCGGCAUCAGUGUGCUCGAAAUGAGUCACAGGUCAUCAGAUUUUGCCAAGAUUAUUGGCAAUACAGAGAAUCUUGUGAGGGAAUUGCUAGCUGUUCCCAACAACUACAAGGUGAUCUUUGUACAAGGAGGUGGGUCUGGCCAGUUCAGUGCUGUCCCCUUAAAUCUGAUUGGCCUGAAAGCUGGAAGGAGUGCUGACUACGUGGUGACCGGAGCUUGGUCAGCUAAGGCUGCGGAAGAAGCCAAGAAGUUUGGAACGGUGAACAUUGUCCACCCUAAACUUGGAAGUUACACAAAAAUUCCAGACCCAAGCACCUGGAACCUCAACCCGGACGCCUCCUAUGUAUACUUCUGUGCAAACGAGACUGUGCACGGGGUGGAGUUUGACUUCGUACCUGACGUCAAGGGAGCGGUGCUGGUCUGUGACAUGUCCUCAAACUUCUUAUCCAGGCCGGUGGAUGUUUCCAAGUUUGGUGUGAUUUUCGCUGGUGCUCAGAAGAAUGUUGGCUCUGCCGGGGUGACGGUGGUGAUUGUCCGGGAUGACCUGCUGGGGUUCUCGCUCAGAGAGUGCCCAUCAGUCCUUGACUACAAAGUGCAGGCUGGGAACAACUCUUUGUAUAACACACCUCCGUGCUUCAGCAUCUACGUCAUGGGCAUGGUCCUGGAAUGGAUCAAGAACAACGGCGGGGCCGCAGCCAUGGAGAAGCUCAGCUCCAUCAAAUCCCAAAUGAUUUAUGAGAUCAUUGAUAAUUCUCAAGGAUUUUAUGUAUGCCCAGUGGAGCGCCAGAAUAGAAGCAGGAUGAACAUCCCAUUUCGCAUUGGCAACGCCAAAGGAGACGAAGCUUUGGAAAAGCGGUUUCUUGACAAGGCGGUAGAACUCAACAUGAUCUCCUUGAAGGGGCACAGGUCAGUGGGAGGCAUUCGUGCCUCUCUGUAUAACGCUGUCACAACCGAAGACGUUGAGAAGCUGGCGGCCUUCAUGAAGAAUUUCUUGGAGAUGCAUCAGCUGUGA
modifications: N1-methylpseudouridine
- staining for nuclear 8-OHG (nuclear foci per CMs) (cardiomyocytes (CM)): significantly lower
- staining for pATM (nuclear foci per CMs) (cardiomyocytes (CM)): significantly lower
- CM size (WGA) [1]: significantly decreased
- capillary density (CD31) [1]: improved
- heart weight to body weight (HW/BW) ratio [1]: significantly increased
- scar size (Masson's trichrome staining) ([1]; compared to Luc modRNA): decreased
- PSAT1 protein expression in NRVM (onset and duration) (PSAT1): achieved within hours of administration and lasted up to several days
